Each block holds one binder with its values, some of them ahead of it.
Tests used:
[1] = molecular target: Claudin 18.1 on CHO cells (CHO+ Claudin 18.1) (UniProt P56856); assay: flow cytometry, unpurified culture supernatant on CHO_18.1 cells, anti-c-Myc 9E10 + Avidin-PE; parental CHO in the same table: 1.25 %
[2] = molecular target: Claudin 18.1 on CHO cells (CHO+ Claudin 18.1) (UniProt P56856); assay: flow cytometry, unpurified culture supernatant on CHO_18.1 cells, anti-c-Myc 9E10 + Avidin-PE; parental CHO in the same table: 1.71 %

Claudin 18.1 on CHO cells (CHO+ Claudin 18.1), sequence (P56856 whole entry): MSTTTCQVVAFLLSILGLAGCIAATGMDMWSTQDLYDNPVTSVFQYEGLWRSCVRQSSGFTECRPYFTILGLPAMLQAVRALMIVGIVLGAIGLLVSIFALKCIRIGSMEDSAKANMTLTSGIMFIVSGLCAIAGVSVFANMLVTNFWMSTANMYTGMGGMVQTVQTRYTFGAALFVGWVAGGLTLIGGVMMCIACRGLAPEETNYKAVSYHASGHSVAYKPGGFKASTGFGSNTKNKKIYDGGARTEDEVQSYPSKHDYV

PE-Positive Cells (%) [1]: 6.79%
B1: Claudin 18.2-4G1 (VHH)
VHH: QVQLVESGGGVVQTGGSLRLTCEISGAALSSYTMGWFRQAPGKEREFVAAISWGGSITWYADSVKGRFTISRDNAKNTVYLQMNSLKPEDTAVYYCHAEGQFGALSYPKDYWGQGTQVTVSS

PE-Positive Cells (%) [2]: 7.32%
B2: Claudin 18.2-3C2 (VHH)
VHH: QVQLVESGGGLVQPGGSLRLSCAASGFTFSNYAMYWVRQAPGKGPEWVSVISGGGGVISYADSVKGRFTISRDNAKNTMYLQMNSLKPEDTAVYYCNAQSAVWWENDYWGQGTQVTVSS
